Test results published in patent US20250304643A1 (BAINAN BIOTECH, published 2025).
*1 amine or outer side, *2 acyl side, *3 side chain or, on linkers, in order; H or OH if unused. Where no end group is shown, it is not given here. Side-chain parts run from the residue outwards. [ ]: non-standard residue; d: D form. The star is where a group is joined. C16 diacid = O=C(O)CCCCCCCCCCCCCCC(=O)*; γGlu = O=C(O)[C@H](CCC(=O)[*:2])N[*:1]; Palmitoyl = CCCCCCCCCCCCCCCC(=O)*; Decanoyl = CCCCCCCCCC(=O)*; Aib = CC(C)(N)C(=O)O

Experiments:
[1] = target: T1, human glucagon-like peptide-2 receptor (human, UniProt O95838 1-553); assay: cell-based or functional assay
T1 sequence (looked up): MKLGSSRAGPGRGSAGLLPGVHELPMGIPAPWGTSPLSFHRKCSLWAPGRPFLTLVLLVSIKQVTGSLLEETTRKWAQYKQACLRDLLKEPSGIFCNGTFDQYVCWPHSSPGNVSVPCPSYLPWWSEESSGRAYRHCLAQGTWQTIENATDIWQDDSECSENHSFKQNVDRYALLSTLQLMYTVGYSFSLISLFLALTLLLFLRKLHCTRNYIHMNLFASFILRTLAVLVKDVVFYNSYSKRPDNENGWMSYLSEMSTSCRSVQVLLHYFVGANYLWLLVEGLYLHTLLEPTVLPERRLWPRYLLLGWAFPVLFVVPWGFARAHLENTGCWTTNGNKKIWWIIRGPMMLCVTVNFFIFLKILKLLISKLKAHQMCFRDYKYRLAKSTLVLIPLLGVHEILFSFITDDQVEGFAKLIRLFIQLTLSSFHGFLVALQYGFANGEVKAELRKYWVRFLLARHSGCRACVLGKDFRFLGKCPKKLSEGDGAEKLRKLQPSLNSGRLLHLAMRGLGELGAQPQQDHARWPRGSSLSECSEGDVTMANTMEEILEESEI

[2] = target: T2, human glucose-dependent insulinotropic polypeptide receptor (human, UniProt P48546 22-466); assay: cell-based or functional assay
T2 sequence (looked up): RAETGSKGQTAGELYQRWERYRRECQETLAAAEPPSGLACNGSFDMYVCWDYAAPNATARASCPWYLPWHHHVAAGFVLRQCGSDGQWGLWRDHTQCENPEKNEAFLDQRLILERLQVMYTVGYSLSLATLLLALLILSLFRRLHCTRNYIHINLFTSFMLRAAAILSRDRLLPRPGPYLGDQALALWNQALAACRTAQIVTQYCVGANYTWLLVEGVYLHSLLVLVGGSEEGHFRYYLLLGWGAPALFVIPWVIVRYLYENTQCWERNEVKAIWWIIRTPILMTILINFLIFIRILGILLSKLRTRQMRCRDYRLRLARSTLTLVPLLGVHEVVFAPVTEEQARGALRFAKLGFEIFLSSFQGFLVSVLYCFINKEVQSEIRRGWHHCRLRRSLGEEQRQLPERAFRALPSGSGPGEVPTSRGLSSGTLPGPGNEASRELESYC

## {C16 diacid}-H[Aib]EGTFISDYST[Aib]LDNLAAKDFINWLIQTKITKNDWKHNITQ-OH [Compound no. 43]
[1]
  Efficacy GLP-2R: 73%

B1: Compound no. 9 (peptide)
peptide: H-H[Aib]DGK([γGlu-Palmitoyl])FISDYSTILDNLAARDFINWLIQTKITK-OH
SMILES: CCCCCCCCCCCCCCCC(=O)N[C@@H](CCC(=O)NCCCC[C@H](NC(=O)CNC(=O)[C@H](CC(=O)O)NC(=O)C(C)(C)NC(=O)[C@@H](N)Cc1c[nH]cn1)C(=O)N[C@@H](Cc1ccccc1)C(=O)N[C@H](C(=O)N[C@@H](CO)C(=O)N[C@@H](CC(=O)O)C(=O)N[C@@H](Cc1ccc(O)cc1)C(=O)N[C@@H](CO)C(=O)N[C@H](C(=O)N[C@H](C(=O)N[C@@H](CC(C)C)C(=O)N[C@@H](CC(=O)O)C(=O)N[C@@H](CC(N)=O)C(=O)N[C@@H](CC(C)C)C(=O)N[C@@H](C)C(=O)N[C@@H](C)C(=O)N[C@@H](CCCNC(=N)N)C(=O)N[C@@H](CC(=O)O)C(=O)N[C@@H](Cc1ccccc1)C(=O)N[C@H](C(=O)N[C@@H](CC(N)=O)C(=O)N[C@@H](Cc1c[nH]c2ccccc12)C(=O)N[C@@H](CC(C)C)C(=O)N[C@H](C(=O)N[C@@H](CCC(N)=O)C(=O)N[C@H](C(=O)N[C@@H](CCCCN)C(=O)N[C@H](C(=O)N[C@H](C(=O)N[C@@H](CCCCN)C(=O)O)[C@@H](C)O)[C@@H](C)CC)[C@@H](C)O)[C@@H](C)CC)[C@@H](C)CC)[C@@H](C)CC)[C@@H](C)O)[C@@H](C)CC)C(=O)O
[2]
  Efficacy GIPR: 110%
[1]
  Efficacy GLP-2R: 91%

## H-H[Aib]DGTFISDYK([γGlu-Palmitoyl])TILDNLAARDFINWLIQTKGKKNDWKHNITQ-NH2 [Compound no. 14]
[2]
  Efficacy GIPR: 101%
[1]
  Efficacy GLP-2R: 114%

## HXDGTFISDYKTILDNLAARDFINWLIQTKITK (Aib at 2; K(γGlu-C16) at 11; C-terminal -OH) [Compound no. 11]
[2]
  Efficacy GIPR: 115%
[1]
  Efficacy GLP-2R: 87%

B2: Compound no. 6 (peptide)
peptide: Palmitoyl-H[Aib]DGTFISDYSTILD[Aib]LAARDFINWLIQTKITK-OH
SMILES: CCCCCCCCCCCCCCCC(=O)N[C@@H](Cc1c[nH]cn1)C(=O)NC(C)(C)C(=O)N[C@@H](CC(=O)O)C(=O)NCC(=O)N[C@H](C(=O)N[C@@H](Cc1ccccc1)C(=O)N[C@H](C(=O)N[C@@H](CO)C(=O)N[C@@H](CC(=O)O)C(=O)N[C@@H](Cc1ccc(O)cc1)C(=O)N[C@@H](CO)C(=O)N[C@H](C(=O)N[C@H](C(=O)N[C@@H](CC(C)C)C(=O)N[C@@H](CC(=O)O)C(=O)NC(C)(C)C(=O)N[C@@H](CC(C)C)C(=O)N[C@@H](C)C(=O)N[C@@H](C)C(=O)N[C@@H](CCCNC(=N)N)C(=O)N[C@@H](CC(=O)O)C(=O)N[C@@H](Cc1ccccc1)C(=O)N[C@H](C(=O)N[C@@H](CC(N)=O)C(=O)N[C@@H](Cc1c[nH]c2ccccc12)C(=O)N[C@@H](CC(C)C)C(=O)N[C@H](C(=O)N[C@@H](CCC(N)=O)C(=O)N[C@H](C(=O)N[C@@H](CCCCN)C(=O)N[C@H](C(=O)N[C@H](C(=O)N[C@@H](CCCCN)C(=O)O)[C@@H](C)O)[C@@H](C)CC)[C@@H](C)O)[C@@H](C)CC)[C@@H](C)CC)[C@@H](C)CC)[C@@H](C)O)[C@@H](C)CC)[C@@H](C)O
[2]
  Efficacy GIPR: 108%
[1]
  Efficacy GLP-2R: 91%

B3: Compound no. 13 (peptide)
peptide: H-H[Aib]DGTFISDYSTILK([γGlu-Palmitoyl])NLAARDFINWLIQTKITK-OH
SMILES: CCCCCCCCCCCCCCCC(=O)N[C@@H](CCC(=O)NCCCC[C@H](NC(=O)[C@H](CC(C)C)NC(=O)[C@@H](NC(=O)[C@@H](NC(=O)[C@H](CO)NC(=O)[C@H](Cc1ccc(O)cc1)NC(=O)[C@H](CC(=O)O)NC(=O)[C@H](CO)NC(=O)[C@@H](NC(=O)[C@H](Cc1ccccc1)NC(=O)[C@@H](NC(=O)CNC(=O)[C@H](CC(=O)O)NC(=O)C(C)(C)NC(=O)[C@@H](N)Cc1c[nH]cn1)[C@@H](C)O)[C@@H](C)CC)[C@@H](C)O)[C@@H](C)CC)C(=O)N[C@@H](CC(N)=O)C(=O)N[C@@H](CC(C)C)C(=O)N[C@@H](C)C(=O)N[C@@H](C)C(=O)N[C@@H](CCCNC(=N)N)C(=O)N[C@@H](CC(=O)O)C(=O)N[C@@H](Cc1ccccc1)C(=O)N[C@H](C(=O)N[C@@H](CC(N)=O)C(=O)N[C@@H](Cc1c[nH]c2ccccc12)C(=O)N[C@@H](CC(C)C)C(=O)N[C@H](C(=O)N[C@@H](CCC(N)=O)C(=O)N[C@H](C(=O)N[C@@H](CCCCN)C(=O)N[C@H](C(=O)N[C@H](C(=O)N[C@@H](CCCCN)C(=O)O)[C@@H](C)O)[C@@H](C)CC)[C@@H](C)O)[C@@H](C)CC)[C@@H](C)CC)C(=O)O
[2]
  Efficacy GIPR: 95%
[1]
  Efficacy GLP-2R: 95%

B4: Compound no. 10 (peptide)
peptide: H-H[Aib]DGTFK([γGlu-Palmitoyl])SDYSTILDNLAARDFINWLIQTKITK-OH
SMILES: CCCCCCCCCCCCCCCC(=O)N[C@@H](CCC(=O)NCCCC[C@H](NC(=O)[C@H](Cc1ccccc1)NC(=O)[C@@H](NC(=O)CNC(=O)[C@H](CC(=O)O)NC(=O)C(C)(C)NC(=O)[C@@H](N)Cc1c[nH]cn1)[C@@H](C)O)C(=O)N[C@@H](CO)C(=O)N[C@@H](CC(=O)O)C(=O)N[C@@H](Cc1ccc(O)cc1)C(=O)N[C@@H](CO)C(=O)N[C@H](C(=O)N[C@H](C(=O)N[C@@H](CC(C)C)C(=O)N[C@@H](CC(=O)O)C(=O)N[C@@H](CC(N)=O)C(=O)N[C@@H](CC(C)C)C(=O)N[C@@H](C)C(=O)N[C@@H](C)C(=O)N[C@@H](CCCNC(=N)N)C(=O)N[C@@H](CC(=O)O)C(=O)N[C@@H](Cc1ccccc1)C(=O)N[C@H](C(=O)N[C@@H](CC(N)=O)C(=O)N[C@@H](Cc1c[nH]c2ccccc12)C(=O)N[C@@H](CC(C)C)C(=O)N[C@H](C(=O)N[C@@H](CCC(N)=O)C(=O)N[C@H](C(=O)N[C@@H](CCCCN)C(=O)N[C@H](C(=O)N[C@H](C(=O)N[C@@H](CCCCN)C(=O)O)[C@@H](C)O)[C@@H](C)CC)[C@@H](C)O)[C@@H](C)CC)[C@@H](C)CC)[C@@H](C)CC)[C@@H](C)O)C(=O)O
[2]
  Efficacy GIPR: 102%
[1]
  Efficacy GLP-2R: 23%

B5: Compound no. 30 (peptide)
peptide: H[Aib]DGTFISDYK([γGlu-Decanoyl])T[Aib]LDNLAARDFINWLIQTKITD-OH
modifications: N-terminus assumed
SMILES: CCCCCCCCCC(=O)N[C@@H](CCC(=O)NCCCC[C@H](NC(=O)[C@H](Cc1ccc(O)cc1)NC(=O)[C@H](CC(=O)O)NC(=O)[C@H](CO)NC(=O)[C@@H](NC(=O)[C@H](Cc1ccccc1)NC(=O)[C@@H](NC(=O)CNC(=O)[C@H](CC(=O)O)NC(=O)C(C)(C)NC(=O)[C@@H](N)Cc1c[nH]cn1)[C@@H](C)O)[C@@H](C)CC)C(=O)N[C@H](C(=O)NC(C)(C)C(=O)N[C@@H](CC(C)C)C(=O)N[C@@H](CC(=O)O)C(=O)N[C@@H](CC(N)=O)C(=O)N[C@@H](CC(C)C)C(=O)N[C@@H](C)C(=O)N[C@@H](C)C(=O)N[C@@H](CCCNC(=N)N)C(=O)N[C@@H](CC(=O)O)C(=O)N[C@@H](Cc1ccccc1)C(=O)N[C@H](C(=O)N[C@@H](CC(N)=O)C(=O)N[C@@H](Cc1c[nH]c2ccccc12)C(=O)N[C@@H](CC(C)C)C(=O)N[C@H](C(=O)N[C@@H](CCC(N)=O)C(=O)N[C@H](C(=O)N[C@@H](CCCCN)C(=O)N[C@H](C(=O)N[C@H](C(=O)N[C@@H](CC(=O)O)C(=O)O)[C@@H](C)O)[C@@H](C)CC)[C@@H](C)O)[C@@H](C)CC)[C@@H](C)CC)[C@@H](C)O)C(=O)O
[1]
  Efficacy GLP-2R: 81%

B6: Compound no. 5 (peptide)
peptide: Palmitoyl-H[Aib]DGTFISDYST[Aib]LDNLAARDFINWLIQTKITK-OH
SMILES: CCCCCCCCCCCCCCCC(=O)N[C@@H](Cc1c[nH]cn1)C(=O)NC(C)(C)C(=O)N[C@@H](CC(=O)O)C(=O)NCC(=O)N[C@H](C(=O)N[C@@H](Cc1ccccc1)C(=O)N[C@H](C(=O)N[C@@H](CO)C(=O)N[C@@H](CC(=O)O)C(=O)N[C@@H](Cc1ccc(O)cc1)C(=O)N[C@@H](CO)C(=O)N[C@H](C(=O)NC(C)(C)C(=O)N[C@@H](CC(C)C)C(=O)N[C@@H](CC(=O)O)C(=O)N[C@@H](CC(N)=O)C(=O)N[C@@H](CC(C)C)C(=O)N[C@@H](C)C(=O)N[C@@H](C)C(=O)N[C@@H](CCCNC(=N)N)C(=O)N[C@@H](CC(=O)O)C(=O)N[C@@H](Cc1ccccc1)C(=O)N[C@H](C(=O)N[C@@H](CC(N)=O)C(=O)N[C@@H](Cc1c[nH]c2ccccc12)C(=O)N[C@@H](CC(C)C)C(=O)N[C@H](C(=O)N[C@@H](CCC(N)=O)C(=O)N[C@H](C(=O)N[C@@H](CCCCN)C(=O)N[C@H](C(=O)N[C@H](C(=O)N[C@@H](CCCCN)C(=O)O)[C@@H](C)O)[C@@H](C)CC)[C@@H](C)O)[C@@H](C)CC)[C@@H](C)CC)[C@@H](C)O)[C@@H](C)CC)[C@@H](C)O
[2]
  Efficacy GIPR: 111%
[1]
  Efficacy GLP-2R: 109%
  logEC50 GLP-2R: 9
